Data published in paper PMC9427776, “TTYH family members form tetrameric complexes at the cell membrane” (Communications Biology, 2022).

B1: mTTYH3-EGFP (HEK 293, pEGFP-N1) [mouse] / itself (parent)
chain: MAGVSYAAPWWVSLLHRLPHFDLRWEATSSQFRPEDADYQQALLLLGATALACLALDLLFLLFYSFWLCCRRRKTDEHLDADCCCTAWCVIITTLVCSAGIAVGFYGNGETSDGIHRATYSLRHANRTVAGVQDRVWDTAAALNRTAEPNLQSLERQLAGRQEPLRAVQRLQTLLGTLLGYTAAIPFWRNPGVSLEVLAEQVDLYDWYRWLGYLGLLLLDVIICLLVLVGLIRSSKGILVGVCLLGVLALVISWGALGLELAVSVGSSDFCVDPDTFVTKMVEEHSVLSGDILQYYLACSPRATNPFQQKLSGSHKALVEMQDVVAELLRNVPREHPATKDPLLRVQEVLNGTEVNLQHLTALVDCRSLHLDYVQALTGFCYDGVEGLIYLALFSFVTALMFSSIVCSIPHTWQQKRGPDDDGEEETAPGPRQAHDSLYRVHMPSLYSCGSSYGSEASIPAAAHTVSNAPVTEYMSQNANFQNPRCENTPLIGRESPPPSYTSSMRAKYLATSQPRPDSSGSGH

Variants of: B1
Assay: FSEC
Conditions: with itself; DDM solubilized HEK 293 cells; n = 3; parent: 0.98; read off a plot

| screen value | Variant |
| --- | --- |
| 0.27 | chain 1 C299A |
| 0.25 | chain 1 C366A |
